The values below come from the supplement of paper PMC10126150.

For this series, the system named is ATP. Put plainly: switch fluorescence ratio, 500 uM ATP over buffer (Cy3 cluster intensity, sum of 5 cycles each) (fold (ratio)); higher = stronger signal-on switching upon ATP binding; sequences stand for … in TCGTCGGCAGCGTCAGATGTGTATAAGAGACAGTTTTTTTTTTTTTTTTTTTTTTTTT…TC. Conditions: aptamer strand: ATP DNA aptamer (quencher-CACCTGGGGGAGTATTGCGGAGGAAGG + anchor), 100 nM annealed; ATP concentration: 500 uM. The essentials: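 Switching-strand clusters labelled with Cy3 on a modified Illumina MiSeq flow-cell were annealed to 100 nM quencher-labelled ATP aptamer, imaged in selection buffer, and re-imaged after 15 min with 500 uM ATP at 22 °C. This was done over five cycles with NaOH stripping and re-annealing in between. The fluorescence ratio is summed target-cycle over summed buffer-cycle Cy3 intensity per cluster, averaged per switch-domain sequence, excluding clusters outside 100-1000 RFU.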

± gives the standard deviation of the averaged measurements.
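Further: ATP exposure 15 min at 22 °C before imaging.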

With TCACATTTTT, the switch fluorescence ratio turned out to be 0.99 ± 0.076.
As to TCACCCGTTT, the switch fluorescence ratio came to 0.993 ± 0.016.
Turning to TCACGAATTT, the switch fluorescence ratio was 1 ± 0.014.
For TCACGCAGGG, the switch fluorescence ratio stood at 1.03 ± 0.023.
Take TCACGCTTGA: the switch fluorescence ratio was found to be 1.05 ± 0.052.
For TCACGGACAG, the switch fluorescence ratio is 1.3 ± 0.057.
As for TCACGGGGGG, the switch fluorescence ratio amounted to 1.08 ± 0.1.
With TCACGGTAAT, the switch fluorescence ratio was 1.16 ± 0.097.
On to TCACGGTAGG, for which the switch fluorescence ratio was found to be 0.999 ± 0.012.
In the case of TCACGGTGTG, the switch fluorescence ratio turned out to be 0.983 ± 0.02.
For TCACGTTCTG, the switch fluorescence ratio is 1.03 ± 0.029.
With TCACGTTGGA, the switch fluorescence ratio was 1.01 ± 0.019.
Regarding TCACGTTTTT, the switch fluorescence ratio was 1.01 ± 0.031.
Consider TCACTAAAAA, for which the switch fluorescence ratio came out at 0.979 ± 0.12.
Turning to TCACTCATTT, the switch fluorescence ratio was found to be 1.01 ± 0.019.
For TCACTTAGAA, the switch fluorescence ratio stood at 1.04 ± 0.016.
The same measure for TCACTTGAGC: 1.011 ± 0.0091; for TCAGAAATGT: 1.01 ± 0.021; for TCAGAAGGTG: 1.59 ± 0.079.
As for TCAGAATTTT, the switch fluorescence ratio worked out at 1.04 ± 0.02.
On to TCAGACAGAT, for which the switch fluorescence ratio was found to be 1.02 ± 0.035.
Consider TCAGACTCAG, for which the switch fluorescence ratio is 0.992 ± 0.021.
On to TCAGACTTTG, for which the switch fluorescence ratio worked out at 0.978 ± 0.022.
As for TCAGAGAAGA, the switch fluorescence ratio worked out at 0.962 ± 0.023.
In the case of TCAGAGGGCT, the switch fluorescence ratio turned out to be 0.991 ± 0.018.
Turning to TCAGAGGGTT, the switch fluorescence ratio turned out to be 1.01 ± 0.031.
The same measure for TCAGAGGTTT: 0.973 ± 0.024.
On to TCAGATATAC, for which the switch fluorescence ratio is 1.581 ± 0.0082.
Consider TCAGCAGGGG, for which the switch fluorescence ratio was 2.67 ± 1.9.
Regarding TCAGCATGGT, the switch fluorescence ratio came out at 1.04 ± 0.091.
For the sequence TCAGCGGGAG, the switch fluorescence ratio was found to be 1.012 ± 0.0016.
Turning to TCAGCGGGTT, the switch fluorescence ratio was 1.04 ± 0.12.
As for TCAGCTCTTC, the switch fluorescence ratio is 0.987 ± 0.042.
Then TCAGGAGGTG, with 1.07 ± 0.019; and TCAGGCAGGC, with 0.936 ± 0.052.
TCAGGCGGC: the switch fluorescence ratio was 0.992 ± 0.017.
The same measure for TCAGGGACTT: 0.9845 ± 0.0077; for TCAGGGGATT: 1.02 ± 0.031.
As for TCAGGGGCAG, the switch fluorescence ratio is 1.06 ± 0.081.
Regarding TCAGGGGGAG, the switch fluorescence ratio amounted to 1.02 ± 0.054.
For TCAGGGGGCC, the switch fluorescence ratio stood at 1.02 ± 0.077.
Consider TCAGGGGTAT, for which the switch fluorescence ratio is 1.03 ± 0.028.
Then TCAGGGGTGC, with 1.09 ± 0.049; and TCAGGGTAGC, with 1.02 ± 0.02.
In the case of TCAGGGTCCG, the switch fluorescence ratio was 0.961 ± 0.017.
Then TCAGTAATCT, with 1.01 ± 0.058; and TCAGTACTTT, with 0.998 ± 0.043; and TCAGTATGTT, with 0.965 ± 0.019.
Regarding TCAGTGACGG, the switch fluorescence ratio was found to be 1.0248 ± 0.00071.
Regarding TCAGTGAGTA, the switch fluorescence ratio was determined as 0.98 ± 0.019.
Consider TCAGTTATCG, for which the switch fluorescence ratio is 0.985 ± 0.014.
In the case of TCAGTTGGAA, the switch fluorescence ratio was 0.977 ± 0.039.
In the case of TCAGTTTACT, the switch fluorescence ratio was determined as 0.998 ± 0.025.
As for TCAGTTTTAC, the switch fluorescence ratio stood at 1.01 ± 0.052.
Consider TCATAACTTT, for which the switch fluorescence ratio stood at 0.984 ± 0.017.
Consider TCATAAGTGA, for which the switch fluorescence ratio worked out at 0.9848 ± 0.0083.
As for TCATACCATA, the switch fluorescence ratio is 1.09 ± 0.03.
On to TCATACGTCT, for which the switch fluorescence ratio is 0.986 ± 0.09.
Regarding TCATAGGTCA, the switch fluorescence ratio came out at 0.972 ± 0.024.
Take TCATATACGA: the switch fluorescence ratio came out at 1.09 ± 0.015.
Consider TCATATACGC, for which the switch fluorescence ratio was 1.1 ± 0.011.
As for TCATATATCT, the switch fluorescence ratio stood at 0.9937 ± 0.0058.
With TCATATGGTT, the switch fluorescence ratio came to 0.999 ± 0.019.
As for TCATATGTTG, the switch fluorescence ratio came to 1.018 ± 0.0036.
Regarding TCATATTTAT, the switch fluorescence ratio is 0.996 ± 0.024.
With TCATCAGGCC, the switch fluorescence ratio turned out to be 1.02 ± 0.012.
Regarding TCATCAGTGA, the switch fluorescence ratio came to 0.998 ± 0.028.
On to TCATCCGGAT, for which the switch fluorescence ratio was 1.25 ± 0.049.
TCATCTAGTG: the switch fluorescence ratio amounted to 1 ± 0.049.
With TCATCTGTTG, the switch fluorescence ratio came to 1 ± 0.033.
For TCATGAACAC, the switch fluorescence ratio stood at 1.01 ± 0.05.
TCATGACGGT: the switch fluorescence ratio came out at 1.011 ± 0.0028.
Regarding TCATGAGCTT, the switch fluorescence ratio is 1.039 ± 0.0015.
As for TCATGATATG, the switch fluorescence ratio came to 0.978 ± 0.027.
Take TCATGCGGTG: the switch fluorescence ratio was 0.967 ± 0.01.
On to TCATGCGTAA, for which the switch fluorescence ratio was determined as 2.03 ± 0.069.
Consider TCATGGGGTA, for which the switch fluorescence ratio was found to be 0.9617 ± 0.004.
On to TCATGGGGTG, for which the switch fluorescence ratio was found to be 1.05 ± 0.07.
TCATGGTCTG: the switch fluorescence ratio is 1 ± 0.012.
The same measure for TCATGTGAAA: 1.03 ± 0.021.
TCATGTTAAA: the switch fluorescence ratio amounted to 0.98647 ± 0.0005.
Take TCATGTTTTT: the switch fluorescence ratio was found to be 1.05 ± 0.14.
The same measure for TCATTAATTG: 1.024 ± 0.0078; for TCATTAGAAA: 1 ± 0.013; for TCATTATGTG: 0.98 ± 0.023.
With TCATTATTCT, the switch fluorescence ratio turned out to be 0.97 ± 0.012.
For TCATTCGGGG, the switch fluorescence ratio was 0.973 ± 0.016.
TCATTCGTCG: the switch fluorescence ratio was found to be 0.9712 ± 0.0031.
On to TCATTGCTTT, for which the switch fluorescence ratio worked out at 1 ± 0.015.
Consider TCATTGGTTA, for which the switch fluorescence ratio was found to be 1.02 ± 0.042.
Regarding TCATTGTGAG, the switch fluorescence ratio was 1 ± 0.038.
Then TCATTGTTGG, with 1 ± 0.023; and TCATTTGGTT, with 0.988 ± 0.042; and TCATTTGTGC, with 1.01 ± 0.039.
Turning to TCATTTTGGG, the switch fluorescence ratio worked out at 0.999 ± 0.028.
As to TCCAAAAACG, the switch fluorescence ratio worked out at 1.15 ± 0.21.
As for TCCAAACCAG, the switch fluorescence ratio came out at 1.06 ± 0.012.
Take TCCAAAGGGC: the switch fluorescence ratio was found to be 1.07 ± 0.024.
In the case of TCCAAATTAC, the switch fluorescence ratio was 2.08 ± 0.064.
TCCAAGACGG: the switch fluorescence ratio stood at 1.02 ± 0.046.
TCCAAGCTGG: the switch fluorescence ratio worked out at 1.03 ± 0.025.
Turning to TCCAAGGTCC, the switch fluorescence ratio stood at 1.04 ± 0.042.
The same measure for TCCAGAAGGC: 1.09 ± 0.13.
For TCCAGAAGTT, the switch fluorescence ratio was 1.07 ± 0.057.
As for TCCAGACAGT, the switch fluorescence ratio is 0.984 ± 0.026.
Regarding TCCAGAGGGA, the switch fluorescence ratio came to 1.28 ± 0.23.
In the case of TCCAGCTGTG, the switch fluorescence ratio was 0.9916 ± 0.0022.
Consider TCCAGGACCA, for which the switch fluorescence ratio came out at 1.03 ± 0.042.
With TCCAGGCGAA, the switch fluorescence ratio stood at 1.08 ± 0.038.
Consider TCCAGGGCTT, for which the switch fluorescence ratio worked out at 1.06 ± 0.013.
Take TCCAGGGGGC: the switch fluorescence ratio was determined as 1.18 ± 0.16.
Take TCCATAAGGG: the switch fluorescence ratio was found to be 1.01 ± 0.023.
The same measure for TCCATGGGTG: 1.52 ± 0.033; for TCCATGTTTT: 1.14 ± 0.22; for TCCATTGAAC: 1.017 ± 0.0026.
Take TCCATTTTGG: the switch fluorescence ratio turned out to be 0.998 ± 0.039.
Then TCCCACTGCT, with 1.03 ± 0.034.
With TCCCATCTGT, the switch fluorescence ratio was determined as 0.984 ± 0.031.
The same measure for TCCCCGACGT: 1.53 ± 0.22.
With TCCCCGCGCT, the switch fluorescence ratio was found to be 1.25 ± 0.37.
